Laboratory results: patent publication US20200069813A1 (S M DISCOVERY GROUP, published 2020)
Where no end group is shown, it is not given here. 5‑FAM = fluorescein amidite

Tests used:
[1] = biological target: T1, receptor for advanced glycation end products (RAGE) (human, UniProt Q15109 23-404); assay: Uptake by hCMEC/D3 cells after RAGE siRNA knock-down, FACS and fluorescence microscopy
T1 construct: whole, on cells; Endogenous receptor on hCMEC/D3 cells; No purified receptor was used; also called RAGE receptor
T1 sequence (Q15109 23-404): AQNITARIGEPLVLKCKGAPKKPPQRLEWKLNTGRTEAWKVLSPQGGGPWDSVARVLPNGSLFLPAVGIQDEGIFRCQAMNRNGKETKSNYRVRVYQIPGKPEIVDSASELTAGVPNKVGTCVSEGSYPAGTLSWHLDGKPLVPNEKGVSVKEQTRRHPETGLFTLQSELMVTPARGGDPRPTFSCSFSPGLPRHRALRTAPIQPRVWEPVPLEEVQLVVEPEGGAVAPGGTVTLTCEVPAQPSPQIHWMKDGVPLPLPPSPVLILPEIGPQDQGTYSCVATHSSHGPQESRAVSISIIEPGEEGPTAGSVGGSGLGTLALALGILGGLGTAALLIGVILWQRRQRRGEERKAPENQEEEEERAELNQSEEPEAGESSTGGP

[2] = biological target: T2, transferrin receptor (TFRC) (human, UniProt P02786 1-760); assay: Uptake by hCMEC/D3 cells after TFRC siRNA knock-down, FACS and fluorescence microscopy
T2 construct: whole, on cells; Endogenous receptor on hCMEC/D3 cells; No purified receptor was used
T2 sequence (P02786 whole entry): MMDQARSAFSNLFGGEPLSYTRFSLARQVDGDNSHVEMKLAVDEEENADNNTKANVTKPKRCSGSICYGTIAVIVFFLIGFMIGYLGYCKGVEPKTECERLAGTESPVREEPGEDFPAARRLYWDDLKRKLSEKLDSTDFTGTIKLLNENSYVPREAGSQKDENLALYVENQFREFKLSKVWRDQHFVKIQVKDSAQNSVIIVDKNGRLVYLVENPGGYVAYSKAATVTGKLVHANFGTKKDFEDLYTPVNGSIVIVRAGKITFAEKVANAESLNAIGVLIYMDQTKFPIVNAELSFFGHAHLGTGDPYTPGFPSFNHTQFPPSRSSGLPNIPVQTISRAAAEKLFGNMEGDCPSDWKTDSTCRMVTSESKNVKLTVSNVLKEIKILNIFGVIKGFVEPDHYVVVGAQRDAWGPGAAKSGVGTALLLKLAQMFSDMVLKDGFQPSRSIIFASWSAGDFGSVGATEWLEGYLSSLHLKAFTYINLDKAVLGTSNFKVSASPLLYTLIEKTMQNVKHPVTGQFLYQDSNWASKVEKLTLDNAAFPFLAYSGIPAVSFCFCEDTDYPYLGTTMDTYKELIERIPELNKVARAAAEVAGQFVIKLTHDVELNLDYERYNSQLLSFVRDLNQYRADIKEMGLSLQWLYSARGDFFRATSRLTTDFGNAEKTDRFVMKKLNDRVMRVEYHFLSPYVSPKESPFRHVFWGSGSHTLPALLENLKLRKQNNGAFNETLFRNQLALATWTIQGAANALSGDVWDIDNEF
Protocol: Cell nucleus stained with Hoechest 33342, Insert bars=50 μm.
The commercial transfection reagent siPORT Amine/TFRC siRNA complex was incubated for 72 h in hCMEC/D3 cells including an unspecific siRNA (siControl) as control.

binding result [1]: binds | binding result [2]: binds
B1: FAM-CGY peptide (5-FAM-Cys-Gly-Tyr-Arg-Pro-Val-His-Asn-Ile-Arg-Gly-His-Trp-Ala-Pro-Gly) (peptide)
peptide: {5‑FAM}-CGYRPVHNIRGHWAPG
modifications: also: forms assemblies with intermolecular Cys disulfides
notes: Synthetic peptide conjugate; also called FAM-CGY nanoparticles; FAM-CGY peptidic nanoparticles
